Assay results: US20090170126A1
Ends that are not written are not given here.

Legend:
[1] = biological target: commercially available anti-prostasin mouse monoclonal antibody (BD Biosciences, catalog No. 612173); assay: competitive immunoassay, commercial monoclonal antibody-immobilized plate; competitor POD-labeled recombinant full-length prostasin 6.4 µg/mL; unlabeled recombinant full-length prostasin 100 ng/mL
[2] = biological target: commercially available anti-prostasin mouse monoclonal antibody (BD Biosciences, catalog No. 612173); assay: competitive immunoassay, commercial monoclonal antibody-immobilized plate; competitor POD-labeled recombinant full-length prostasin 6.4 µg/mL; unlabeled recombinant full-length prostasin 5 ng/mL
[3] = biological target: commercially available anti-prostasin mouse monoclonal antibody (BD Biosciences, catalog No. 612173); assay: competitive immunoassay, commercial monoclonal antibody-immobilized plate; competitor POD-labeled recombinant full-length prostasin 6.4 µg/mL; unlabeled recombinant full-length prostasin 50 ng/mL
[4] = biological target: commercially available anti-prostasin mouse monoclonal antibody (BD Biosciences, catalog No. 612173); assay: competitive immunoassay, commercial monoclonal antibody-immobilized plate; competitor POD-labeled recombinant full-length prostasin 6.4 µg/mL; unlabeled recombinant full-length prostasin 0 ng/mL
[5] = biological target: commercially available anti-prostasin mouse monoclonal antibody (BD Biosciences, catalog No. 612173); assay: competitive immunoassay, commercial monoclonal antibody-immobilized plate; competitor POD-labeled recombinant full-length prostasin 6.4 µg/mL; unlabeled recombinant full-length prostasin 10 ng/mL
[6] = biological target: commercially available anti-prostasin mouse monoclonal antibody (BD Biosciences, catalog No. 612173); assay: competitive immunoassay, commercial monoclonal antibody-immobilized plate; competitor POD-labeled recombinant full-length prostasin 6.4 µg/mL; unlabeled recombinant full-length prostasin 25 ng/mL
[7] = biological target: affinity-purified antibody (c); assay: competitive immunoassay, antibody (c)-immobilized plate; competitor POD-labeled partial peptide (c) 0.35 µg/mL; unlabeled peptide (c) 10 ng/mL
[8] = biological target: affinity-purified antibody (c); assay: competitive immunoassay, antibody (c)-immobilized plate; competitor POD-labeled partial peptide (c) 0.35 µg/mL; unlabeled peptide (c) 25 ng/mL
[9] = biological target: affinity-purified antibody (c); assay: competitive immunoassay, antibody (c)-immobilized plate; competitor POD-labeled partial peptide (c) 0.35 µg/mL; unlabeled peptide (c) 50 ng/mL
[10] = biological target: affinity-purified antibody (c); assay: competitive immunoassay, antibody (c)-immobilized plate; competitor POD-labeled partial peptide (c) 0.35 µg/mL; unlabeled peptide (c) 100 ng/mL
[11] = biological target: affinity-purified antibody (c); assay: competitive immunoassay, antibody (c)-immobilized plate; competitor POD-labeled partial peptide (c) 0.35 µg/mL; unlabeled peptide (c) 0 ng/mL
[12] = biological target: affinity-purified antibody (c); assay: competitive immunoassay, antibody (c)-immobilized plate; competitor POD-labeled partial peptide (c) 0.35 µg/mL; unlabeled peptide (c) 5 ng/mL
[13] = biological target: affinity-purified antibody (a); assay: difference of absorbance between 0 and 50 ng/mL unlabeled partial peptide (a); antibody (a)-immobilized plate; POD-labeled peptide (a) 0.10 µg/mL
[14] = biological target: affinity-purified antibody (a); assay: antibody (a)-immobilized plate; POD-labeled peptide (a) 0.025 µg/mL; unlabeled partial peptide (a) 0 ng/mL
[15] = biological target: affinity-purified antibody (a); assay: antibody (a)-immobilized plate; POD-labeled peptide (a) 0.05 µg/mL; competitor unlabeled partial peptide (a) 50 ng/mL
[16] = biological target: affinity-purified antibody (a); assay: difference of absorbance between 0 and 50 ng/mL unlabeled partial peptide (a); antibody (a)-immobilized plate; POD-labeled peptide (a) 0.15 µg/mL
[17] = biological target: affinity-purified antibody (a); assay: antibody (a)-immobilized plate; POD-labeled peptide (a) 0.025 µg/mL; competitor unlabeled partial peptide (a) 50 ng/mL
[18] = biological target: affinity-purified antibody (a); assay: antibody (a)-immobilized plate; POD-labeled peptide (a) 0.05 µg/mL; unlabeled partial peptide (a) 0 ng/mL
[19] = biological target: affinity-purified antibody (a); assay: difference of absorbance between 0 and 50 ng/mL unlabeled partial peptide (a); antibody (a)-immobilized plate; POD-labeled peptide (a) 0.05 µg/mL
[20] = biological target: affinity-purified antibody (a); assay: antibody (a)-immobilized plate; POD-labeled peptide (a) 0.15 µg/mL; unlabeled partial peptide (a) 0 ng/mL
[21] = biological target: affinity-purified antibody (a); assay: antibody (a)-immobilized plate; POD-labeled peptide (a) 0.15 µg/mL; competitor unlabeled partial peptide (a) 50 ng/mL
[22] = biological target: affinity-purified antibody (a); assay: antibody (a)-immobilized plate; POD-labeled peptide (a) 0.25 µg/mL; unlabeled partial peptide (a) 0 ng/mL
[23] = biological target: affinity-purified antibody (a); assay: difference of absorbance between 0 and 50 ng/mL unlabeled partial peptide (a); antibody (a)-immobilized plate; POD-labeled peptide (a) 0.025 µg/mL
[24] = biological target: affinity-purified antibody (a); assay: antibody (a)-immobilized plate; POD-labeled peptide (a) 0.10 µg/mL; competitor unlabeled partial peptide (a) 50 ng/mL
[25] = biological target: affinity-purified antibody (a); assay: antibody (a)-immobilized plate; POD-labeled peptide (a) 0.25 µg/mL; competitor unlabeled partial peptide (a) 50 ng/mL
[26] = biological target: affinity-purified antibody (a); assay: antibody (a)-immobilized plate; POD-labeled peptide (a) 0.10 µg/mL; unlabeled partial peptide (a) 0 ng/mL
[27] = biological target: affinity-purified antibody (a); assay: antibody (a)-immobilized plate; POD-labeled peptide (a) 0.20 µg/mL; unlabeled partial peptide (a) 0 ng/mL
[28] = biological target: affinity-purified antibody (a); assay: difference of absorbance between 0 and 50 ng/mL unlabeled partial peptide (a); antibody (a)-immobilized plate; POD-labeled peptide (a) 0.25 µg/mL
[29] = biological target: affinity-purified antibody (a); assay: difference of absorbance between 0 and 50 ng/mL unlabeled partial peptide (a); antibody (a)-immobilized plate; POD-labeled peptide (a) 0.20 µg/mL
[30] = biological target: affinity-purified antibody (a); assay: antibody (a)-immobilized plate; POD-labeled peptide (a) 0.20 µg/mL; competitor unlabeled partial peptide (a) 50 ng/mL
[31] = biological target: affinity-purified antibody (e); assay: competitive immunoassay, antibody (e)-immobilized plate; competitor POD-labeled partial peptide (e) 0.30 µg/mL; unlabeled peptide (e) 50 ng/mL
[32] = biological target: affinity-purified antibody (e); assay: competitive immunoassay, antibody (e)-immobilized plate; competitor POD-labeled partial peptide (e) 0.30 µg/mL; unlabeled peptide (e) 5 ng/mL
[33] = biological target: affinity-purified antibody (e); assay: competitive immunoassay, antibody (e)-immobilized plate; competitor POD-labeled partial peptide (e) 0.30 µg/mL; unlabeled peptide (e) 25 ng/mL
[34] = biological target: affinity-purified antibody (e); assay: competitive immunoassay, antibody (e)-immobilized plate; competitor POD-labeled partial peptide (e) 0.30 µg/mL; unlabeled peptide (e) 0 ng/mL
[35] = biological target: affinity-purified antibody (e); assay: competitive immunoassay, antibody (e)-immobilized plate; competitor POD-labeled partial peptide (e) 0.30 µg/mL; unlabeled peptide (e) 100 ng/mL
[36] = biological target: affinity-purified antibody (e); assay: competitive immunoassay, antibody (e)-immobilized plate; competitor POD-labeled partial peptide (e) 0.30 µg/mL; unlabeled peptide (e) 10 ng/mL

## recombinant protein of full-length prostasin (prepared according to the method of Chen, L-M. et al., J. Biol. Chem., Vol. 276, pp. 21434-21442, 2001) (from UniProt Q16651 33-322) (enzyme)
[1]
  absorbance (Abs): 1.22 Abs
[2]
  absorbance (Abs): 1.21 Abs
[3]
  absorbance (Abs): 1.09 Abs
[4]
  absorbance (Abs): 1.18 Abs
[5]
  absorbance (Abs): 1.19 Abs
[6]
  absorbance (Abs): 1.12 Abs

## NCLYNIDAKPEEPHFVQED [partial peptide (c) of prostasin]
[7]
  absorbance (Abs): 1.11 Abs
[8]
  absorbance (Abs): 1.12 Abs
[9]
  absorbance (Abs): 0.938 Abs
[10]
  absorbance (Abs): 0.943 Abs
[11]
  absorbance (Abs): 1.09 Abs
[12]
  absorbance (Abs): 1.08 Abs

## AHQLDSYSEDAKVSTLKDI (also: peroxidase (POD) label, attachment site not given here) [POD-labeled partial peptide (a)]
[13]
  ΔOD [absorbance (Abs)]: 0.596 Abs
[14]
  absorbance (Abs): 0.418 Abs
[15]
  absorbance (Abs): 0.477 Abs
[16]
  ΔOD [absorbance (Abs)]: 0.79 Abs
[17]
  absorbance (Abs): 0.231 Abs
[18]
  absorbance (Abs): 0.815 Abs
[19]
  ΔOD [absorbance (Abs)]: 0.338 Abs
[20]
  absorbance (Abs): 2.04 Abs
[21]
  absorbance (Abs): 1.25 Abs
[22]
  absorbance (Abs): 2.91 Abs
[23]
  ΔOD [absorbance (Abs)]: 0.187 Abs
[24]
  absorbance (Abs): 0.809 Abs
[25]
  absorbance (Abs): 1.99 Abs
[26]
  absorbance (Abs): 1.41 Abs
[27]
  absorbance (Abs): 2.4 Abs
[28]
  ΔOD [absorbance (Abs)]: 0.925 Abs
[29]
  ΔOD [absorbance (Abs)]: 0.901 Abs
[30]
  absorbance (Abs): 1.5 Abs

## PQTQESQPDSN [partial peptide (e) of prostasin]
[31]
  absorbance (Abs): 1.41 Abs
[32]
  absorbance (Abs): 1.96 Abs
[33]
  absorbance (Abs): 1.55 Abs
[34]
  absorbance (Abs): 1.97 Abs
[35]
  absorbance (Abs): 1.49 Abs
[36]
  absorbance (Abs): 1.62 Abs
